Data published in patent US20240279288A1, “APPLICATION OF PLANT JAZ PROTEINS AND DERIVED POLYPEPTIDES IN PREVENTION AND TREATMENT OF HUMAN AND ANIMAL TUMORS” (ANYANG INSTITUTE OF SINO-COTTON INDUSTRY INNOVATION, priority 2021, published 2024).

Assays:
GhMYC2 = experiment: Yeast two hybrid with GhMYC2; format: binding, cotton
Protocol: (§1) The study on Arabidopsis had shown that the inhibition of JAZ protein on JA signaling was mainly achieved by inhibiting the transcription factor function of MYC, which had been experimentally verified by us in cotton. Based on the phylogenetic tree of Arabidopsis and cotton JAZs, we screened 6 cotton JAZs (GhJAZ1, GhJAZ7, GhJAZ9, GhJAZ10, GhJAZ11 and GhJAZ31), which were analyzed with GhMYC2, GhNINJA, GhTPL, GhHDA6, and GhCOI1 for yeast two hybrid. The amino acid sequence of GhJAZ1 was set forth in SEQ ID No. 4, and the corresponding encoding gene sequence was set forth in SEQ ID No. 39; the amino acid sequence of GhJAZ7 was set forth in SEQ ID No. 7, and the corresponding encoding gene sequence was set forth in SEQ ID No. 42; the amino acid sequence of GhJAZ9 was set forth in SEQ ID No. 2, and the corresponding encoding gene sequence was set forth in SEQ ID No. 37; the amino acid sequence of GhJAZ10 was set forth in SEQ ID No. 3, and the corresponding encoding gene sequence was set forth in SEQ ID No. 38; the amino acid sequence of GhJAZ11 was set forth in SEQ ID No. 5, and the corresponding encoding gene sequence was set forth in SEQ ID No. 40; and the amino acid sequence of GhJAZ31 was set forth in SEQ ID No. 9, and the corresponding encoding gene sequence was set forth in SEQ ID No. 44. The amino acid sequence of GhMYC2 was set forth in SEQ ID No. 71, and the corresponding encoding gene sequence was set forth in SEQ ID No. 72; the amino acid sequence of GhNINJA was set forth in SEQ ID No. 73, and the corresponding encoding gene sequence was set forth in SEQ ID No. 74; the amino acid sequence of GhTPL was set forth in SEQ ID No. 75, and the corresponding encoding gene sequence was set forth in SEQ ID No. 76; the amino acid sequence of GhHDA6 was set forth in SEQ ID No. 77, and the corresponding encoding gene sequence was set forth in SEQ ID No. 78; and the amino acid sequence of GhCOI1 was set forth in SEQ ID No. 79, and the corresponding encoding gene sequence was set forth in SEQ ID No. 80. […]

GhHDA6 = experiment: Yeast two hybrid with GhHDA6; format: binding, cotton
Protocol: as §1, with “44.” for “44. The amino acid sequence of GhMYC2 was set forth in SEQ ID No. 71, and the corresponding encoding gene sequence was set forth in SEQ ID No. 72; the amino acid sequence of GhNINJA was set forth in SEQ ID No. 73, and the corresponding encoding gene sequence was set forth in SEQ ID No. 74; the amino acid sequence of GhTPL was set forth in SEQ ID No. 75, and the corresponding encoding gene sequence was set forth in SEQ ID No. 76; the amino acid sequence of GhHDA6 was set forth in SEQ ID No. 77, and the corresponding encoding gene sequence was set forth in SEQ ID No. 78; and the amino acid sequence of GhCOI1 was set forth in SEQ ID No. 79, and the corresponding encoding gene sequence was set forth in SEQ ID No. 80.”

GhHDA6, sequence (as listed by the source): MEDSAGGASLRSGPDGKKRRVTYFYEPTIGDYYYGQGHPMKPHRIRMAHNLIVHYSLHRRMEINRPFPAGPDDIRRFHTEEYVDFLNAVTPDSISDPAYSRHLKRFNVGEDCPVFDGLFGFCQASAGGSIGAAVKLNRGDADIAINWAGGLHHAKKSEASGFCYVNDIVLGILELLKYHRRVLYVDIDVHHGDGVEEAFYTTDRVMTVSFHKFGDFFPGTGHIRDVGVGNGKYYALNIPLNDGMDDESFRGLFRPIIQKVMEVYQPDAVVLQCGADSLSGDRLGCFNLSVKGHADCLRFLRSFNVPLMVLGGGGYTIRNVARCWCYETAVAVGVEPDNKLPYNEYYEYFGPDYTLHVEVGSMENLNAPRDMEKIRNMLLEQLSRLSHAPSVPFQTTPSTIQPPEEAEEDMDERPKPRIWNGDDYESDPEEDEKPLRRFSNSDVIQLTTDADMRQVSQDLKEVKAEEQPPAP
GhMYC2, sequence (as listed by the source): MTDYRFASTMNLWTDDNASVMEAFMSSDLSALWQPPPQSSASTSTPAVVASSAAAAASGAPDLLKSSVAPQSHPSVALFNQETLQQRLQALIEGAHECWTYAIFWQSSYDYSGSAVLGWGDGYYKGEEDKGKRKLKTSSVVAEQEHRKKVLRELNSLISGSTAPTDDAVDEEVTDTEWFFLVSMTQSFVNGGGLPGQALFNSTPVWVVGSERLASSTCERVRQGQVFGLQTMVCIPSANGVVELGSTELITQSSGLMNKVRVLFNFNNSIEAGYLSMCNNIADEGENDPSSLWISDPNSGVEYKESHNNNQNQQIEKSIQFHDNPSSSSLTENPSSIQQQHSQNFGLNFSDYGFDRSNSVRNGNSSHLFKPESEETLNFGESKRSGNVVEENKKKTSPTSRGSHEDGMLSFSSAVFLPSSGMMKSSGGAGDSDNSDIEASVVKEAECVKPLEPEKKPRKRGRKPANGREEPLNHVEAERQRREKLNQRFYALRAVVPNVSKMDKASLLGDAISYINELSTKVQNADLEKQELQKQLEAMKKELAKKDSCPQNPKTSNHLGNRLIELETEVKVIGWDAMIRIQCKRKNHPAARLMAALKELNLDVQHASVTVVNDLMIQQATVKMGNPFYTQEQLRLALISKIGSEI

Row | Molecule | interaction with GhMYC2 (GhMYC2) | interaction with GhHDA6 (GhHDA6)
1 | GhJAZ1 after deletion of NT domain: GhJAZ1 mutant with NT domain deleted, protein sequence SEQ ID No. 83 (protein) MSSCSESTAMKPARSPEANGTPVVPPPTMNLFPLNDKSDDVCGRNGGNPKNLTSMDLFPQQAGLASKDDSPNKLEPQTAPMTIFYGGQVIVFNDFPANKAKEIMLLASNSSSQSNNSFNPIPFTSSIARSPIESSIGVPPTSKPVHPAQRAVPGDLPIARRASLHRFLEKRKDRITAKAPYQINNSAAAPSLSGDNKSWLGLAAQSP | significantly weakened | significantly weakened
2 | GhJAZ1: cotton JAZ1 protein, gene number Gh_A05G0260, sequence SEQ ID No. 4; prokaryotically expressed with His tag, about 30 KD (protein, His tag, prokaryotically expressed with His tag, about 30 KD) MSSCSESTAMKPARSPEKPSFAQTCNLLSQYLKEKGSFGDLSLGMTCNVEANGTPVVPPPTMNLFPLNDKSDDVCGRNGGNPKNLTSMDLFPQQAGLASKDDSPNKLEPQTAPMTIFYGGQVIVFNDFPANKAKEIMLLASNSSSQSNNSFNPIPFTSSIARSPIESSIGVPPTSKPVHPAQRAVPGDLPIARRASLHRFLEKRKDRITAKAPYQINNSAAAPSLSGDNKSWLGLAAQSP | strong | interacted
